Test results from patent publication US6670167.

Tested on: T1, Syntide-2, synthetic substrate peptide PLARTLSVAGLPGKK
T1 sequence: PLARTLSVAGLPGKK

“Proteolytically cleaved Chk1, preparation HA2-022” was tested, and the Activity was “+38 fold”, the Rate/min (/min (at 2 nM enzyme)) was 0.0208 and the activity comparison was “the cleaved preparation was 38 fold more active than the non-cleaved preparation”.
